# Measurements taken from paper PMC11870394 (bioRxiv, 2025).
# Molecular target: RSV prefusion F (PR-DM) (respiratory syncytial virus A, UniProt P03420)
# Test: cryo-EM structure
row,Binder,stoichiometry N [Fab per F trimer]
1,"RSV-3301 Fab (Fab, V domains shown) VH: QVQLVESGPTLVKPTQTLTLTCSFSGFSLSTRGVGVGWVRQPPGKALECLGFTYWDGDEYYSPSLRNRVTISKDTSKNQVVLTLTNMDPVDTATYFCVHSDLYDRGGYYLYYFDYWGQGTLVTVSS VL: DIRVTQSPSSLSASVGDRVTITCRASQTIASYVNWYQQKPGRAPELLIYAASILQSGVPSRFSGRGSGTDFTLTINGLQPEDFATYYCQQSYSSPWTFGQGTKVEIK",3
2,"RSV-2245 Fab (Fab, V domains shown) VH: QVQLVQSGAEVKKPGASVKVSCKASGYSFSSFGVSWVRQAPGQGLEWLGWISAYNGNTDYAQKVQGRLTMTTDTSTNTAYMELRNLRSDDTAVYYCARDPPASAAAMFDYWGQGTLVTVSS VL: not shown",3
